How the values were obtained:
recombinant yeast CIT1 [1] = biological target: T1, recombinant yeast CIT1 (yeast (Saccharomyces cerevisiae), UniProt P00890 38-479); test: MST; labeled MDH1 as target, CIT1 titrated (two-fold dilutions of 80 μM, 16 concentrations), Monolith NT.115, room temperature; buffer pH 6.4; conditions: both partners purified
T1 construct: citrate synthase CIT1, mitochondrial, yeast (Saccharomyces cerevisiae); also called recombinant CIT1; source: recombinant; produced according to the Supplementary Methods
T1 sequence (looked up): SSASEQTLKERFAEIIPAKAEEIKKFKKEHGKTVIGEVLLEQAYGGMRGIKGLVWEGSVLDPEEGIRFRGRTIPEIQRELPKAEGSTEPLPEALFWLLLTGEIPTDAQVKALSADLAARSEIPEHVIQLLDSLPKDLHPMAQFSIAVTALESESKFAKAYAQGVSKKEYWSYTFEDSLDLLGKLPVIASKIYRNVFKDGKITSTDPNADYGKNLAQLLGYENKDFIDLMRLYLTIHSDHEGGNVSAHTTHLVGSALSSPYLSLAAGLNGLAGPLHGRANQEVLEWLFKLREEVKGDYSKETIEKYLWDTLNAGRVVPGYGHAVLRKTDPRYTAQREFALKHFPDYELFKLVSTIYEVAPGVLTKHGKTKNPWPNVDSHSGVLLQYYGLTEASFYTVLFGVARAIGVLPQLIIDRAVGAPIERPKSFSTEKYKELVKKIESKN

recombinant yeast CIT1 [2] = biological target: T1, recombinant yeast CIT1; test: MST; labeled MDH1 as target, CIT1 titrated (two-fold dilutions of 80 μM, 16 concentrations), Monolith NT.115, room temperature; buffer pH 6.0; conditions: both partners purified
recombinant yeast CIT1 [3] = biological target: T1, recombinant yeast CIT1; test: MST; labeled MDH1 as target, CIT1 titrated (two-fold dilutions of 80 μM, 16 concentrations), Monolith NT.115, room temperature; buffer pH 7.2; conditions: both partners purified
[4] = biological target: T2, recombinant yeast MDH1, fluorescently labeled (yeast (Saccharomyces cerevisiae), UniProt P17505 18-334, labeled with Protein Labeling Kit RED-NHS 2nd Generation (NanoTemper)); test: MST; pH 6.8
T2 chain: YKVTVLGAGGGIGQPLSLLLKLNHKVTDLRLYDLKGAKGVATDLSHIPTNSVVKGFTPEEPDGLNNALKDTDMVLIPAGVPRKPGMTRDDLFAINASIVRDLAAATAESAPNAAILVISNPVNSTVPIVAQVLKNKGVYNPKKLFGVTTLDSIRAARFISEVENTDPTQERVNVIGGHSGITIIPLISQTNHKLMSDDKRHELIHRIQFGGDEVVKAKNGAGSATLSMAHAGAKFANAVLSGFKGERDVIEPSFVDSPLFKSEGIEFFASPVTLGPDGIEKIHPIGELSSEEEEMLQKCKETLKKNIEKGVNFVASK

[5] = biological target: T2, recombinant yeast MDH1, fluorescently …; test: MST; control (no metabolite)
[6] = biological target: T2, recombinant yeast MDH1, fluorescently …; test: MST; 10 mM malate
[7] = biological target: T2, recombinant yeast MDH1, fluorescently …; test: MST; 10 mM fumarate

B1: recombinant yeast MDH1, fluorescently labeled (enzyme, yeast (Saccharomyces cerevisiae), UniProt P17505 18-334, looked up)
chain: T2 chain
modifications: labeled with Protein Labeling Kit RED-NHS 2nd Generation (NanoTemper)
notes: malate dehydrogenase MDH1, mitochondrial, yeast (Saccharomyces cerevisiae); also called recombinant MDH1; labeled MDH1; source: recombinant; produced according to the Supplementary Methods
Kd (recombinant yeast CIT1 [1]): 223 nM
Kd (recombinant yeast CIT1 [2]): 33 nM
Kd (recombinant yeast CIT1 [3]): 3480 nM

B2: recombinant yeast CIT1 (enzyme)
chain: T1 sequence (looked up)
Kd [4]: 2720 nM
Kd [5]: 6070 nM
Kd [6]: 367 nM
Kd [7]: 288 nM

Source: article doi:10.1101/2025.06.16.659985, “Dynamic assembly of malate dehydrogenase-citrate synthase multienzyme complex in the mitochondria” (bioRxiv, 2025)
